{"source": "paper PMC3348883", "target": "Raf-1 (UniProt P04049)", "assay": "FLAG IP, GFP-Raf-1 blot", "details": "reference: FLAG-MST2 wild type; sites Y81"}
{"substance": "MST2 (from UniProt Q13188) FLAG-MST2 Y81F", "values": [{"measurement": "binding against the reference", "result": "stronger"}]}
